Reference: patent US20220220164A1

Target: maize RIP β-chain (second component of the gePSI), C-terminally fused to a murine ornithine decarboxylase (ODC36) degron (maize (Zea mays); murine) (UniProt P00860)
Test: cell-based or functional assay
Details: scale: normalized nascent protein signal

Chain of UniProt P00860 (P00860 426-461, tags or fused parts left off): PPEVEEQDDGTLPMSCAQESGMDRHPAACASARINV

maize RIP α-chain (first component of the gePSI) (from UniProt P25891 22-161) (enzyme)
nascent protein signal of gePSI-transfected neurons after 4 h dox, normalized to the mean of neighboring untransfected neurons (FIG. 1g): 0.21
